Drawing on patent publication US20250171562A1 (ALK ABELL, published 2025), this text covers Max effect and EC50 for eight molecules.

The labels stand for the following.
B1: NIgG4E1A1(G4S)1 (Fc fusion)
chain 1: DVQLQESGGGLVQAGGSLRLSCLASGRTFTTTSGYNMGWFRQAPGKEREFVAGIKWVSGSNRAYAESVKGRFTISRDNAKNTVYLQMNSLKPEDTAVYYCAAATGQSYVPIREYEYVYWGQGTQVTVSGGGGSGPPCPPCPAPEFLGGPSVFLFPPKPKDTLMISRTPEVTCVVVDVSQEDPEVQFNWYVDGVEVHNAKTKPREEQFNSTYRVVSVLTVLHQDWLNGKEYKCKVSNKGLPSSIEKTISKAKGQPREPQVYTLPPCQEEMTKNQVSLWCLVKGFYPSDIAVEWESNGQPENNYKTTPPVLDSDGSFFLYSRLTVDKSRWQEGNVFSCSVMHEALHNHYTQKSLSLSLGK
chain 2: EVQLLESGGGLVQPGGSLRLSCAASGFTFGNYDMAWVRQAPGKRPEWVSSIDTGGDITHYADSVKGRFTISRDNAKNTLYLQMNSLRPEDTAVYWCATDEEYALGPNEFDYYGQGTLVTVSSGGGGSGPPCPPCPAPEFLGGPSVFLFPPKPKDTLMISRTPEVTCVVVDVSQEDPEVQFNWYVDGVEVHNAKTKPREEQFNSTYRVVSVLTVLHQDWLNGKEYKCKVSNKGLPSSIEKTISKAKGQPREPQVCTLPPSQEEMTKNQVSLSCAVKGFYPSDIAVEWESNGQPENNYKTTPPVLDSDGSFFLVSRLTVDKSRWQEGNVFSCSVMHEALHNHYTQKSLSLSLGK
B2: CIgG4D2A1(G4S)3 (Fc fusion)
chain 1: GPPCPPCPAPEFLGGPSVFLFPPKPKDTLMISRTPEVTCVVVDVSQEDPEVQFNWYVDGVEVHNAKTKPREEQFNSTYRVVSVLTVLHQDWLNGKEYKCKVSNKGLPSSIEKTISKAKGQPREPQVYTLPPCQEEMTKNQVSLWCLVKGFYPSDIAVEWESNGQPENNYKTTPPVLDSDGSFFLYSRLTVDKSRWQEGNVFSCSVMHEALHNHYTQKSLSLSLGKGGGGSGGGGSGGGGSDVQLQESGGGLVEAGGSLRLSCVASGRTFSGWSMGWFRQAPGKEREFVAAISWVGSWIGGTVYSNSVKGRFTISRDNARTTVYLQMNSLKPEDTAVYFCAAANSETPRIFASEYDYWGQGTQVTVS
chain 2: GPPCPPCPAPEFLGGPSVFLFPPKPKDTLMISRTPEVTCVVVDVSQEDPEVQFNWYVDGVEVHNAKTKPREEQFNSTYRVVSVLTVLHQDWLNGKEYKCKVSNKGLPSSIEKTISKAKGQPREPQVCTLPPSQEEMTKNQVSLSCAVKGFYPSDIAVEWESNGQPENNYKTTPPVLDSDGSFFLVSRLTVDKSRWQEGNVFSCSVMHEALHNHYTQKSLSLSLGKGGGGSGGGGSGGGGSEVQLLESGGGLVQPGGSLRLSCAASGFTFGNYDMAWVRQAPGKRPEWVSSIDTGGDITHYADSVKGRFTISRDNAKNTLYLQMNSLRPEDTAVYWCATDEEYALGPNEFDYYGQGTLVTVSS
B3: CIgG4E1A1(G4S)2 (Fc fusion)
chain 1: GPPCPPCPAPEFLGGPSVFLFPPKPKDTLMISRTPEVTCVVVDVSQEDPEVQFNWYVDGVEVHNAKTKPREEQFNSTYRVVSVLTVLHQDWLNGKEYKCKVSNKGLPSSIEKTISKAKGQPREPQVYTLPPCQEEMTKNQVSLWCLVKGFYPSDIAVEWESNGQPENNYKTTPPVLDSDGSFFLYSRLTVDKSRWQEGNVFSCSVMHEALHNHYTQKSLSLSLGKGGGGSGGGGSDVQLQESGGGLVQAGGSLRLSCLASGRTFTTTSGYNMGWFRQAPGKEREFVAGIKWVSGSNRAYAESVKGRFTISRDNAKNTVYLQMNSLKPEDTAVYYCAAATGQSYVPIREYEYVYWGQGTQVTVS
chain 2: GPPCPPCPAPEFLGGPSVFLFPPKPKDTLMISRTPEVTCVVVDVSQEDPEVQFNWYVDGVEVHNAKTKPREEQFNSTYRVVSVLTVLHQDWLNGKEYKCKVSNKGLPSSIEKTISKAKGQPREPQVCTLPPSQEEMTKNQVSLSCAVKGFYPSDIAVEWESNGQPENNYKTTPPVLDSDGSFFLVSRLTVDKSRWQEGNVFSCSVMHEALHNHYTQKSLSLSLGKGGGGSGGGGSEVQLLESGGGLVQPGGSLRLSCAASGFTFGNYDMAWVRQAPGKRPEWVSSIDTGGDITHYADSVKGRFTISRDNAKNTLYLQMNSLRPEDTAVYWCATDEEYALGPNEFDYYGQGTLVTVSS
B4: NIgG4E1A1(G4S)2 (Fc fusion)
chain 1: DVQLQESGGGLVQAGGSLRLSCLASGRTFTTTSGYNMGWFRQAPGKEREFVAGIKWVSGSNRAYAESVKGRFTISRDNAKNTVYLQMNSLKPEDTAVYYCAAATGQSYVPIREYEYVYWGQGTQVTVSGGGGSGGGGSGPPCPPCPAPEFLGGPSVFLFPPKPKDTLMISRTPEVTCVVVDVSQEDPEVQFNWYVDGVEVHNAKTKPREEQFNSTYRVVSVLTVLHQDWLNGKEYKCKVSNKGLPSSIEKTISKAKGQPREPQVYTLPPCQEEMTKNQVSLWCLVKGFYPSDIAVEWESNGQPENNYKTTPPVLDSDGSFFLYSRLTVDKSRWQEGNVFSCSVMHEALHNHYTQKSLSLSLGK
chain 2: EVQLLESGGGLVQPGGSLRLSCAASGFTFGNYDMAWVRQAPGKRPEWVSSIDTGGDITHYADSVKGRFTISRDNAKNTLYLQMNSLRPEDTAVYWCATDEEYALGPNEFDYYGQGTLVTVSSGGGGSGGGGSGPPCPPCPAPEFLGGPSVFLFPPKPKDTLMISRTPEVTCVVVDVSQEDPEVQFNWYVDGVEVHNAKTKPREEQFNSTYRVVSVLTVLHQDWLNGKEYKCKVSNKGLPSSIEKTISKAKGQPREPQVCTLPPSQEEMTKNQVSLSCAVKGFYPSDIAVEWESNGQPENNYKTTPPVLDSDGSFFLVSRLTVDKSRWQEGNVFSCSVMHEALHNHYTQKSLSLSLGK
B5: NIgG4E1A1(RS) (Fc fusion)
chain 1: DVQLQESGGGLVQAGGSLRLSCLASGRTFTTTSGYNMGWFRQAPGKEREFVAGIKWVSGSNRAYAESVKGRFTISRDNAKNTVYLQMNSLKPEDTAVYYCAAATGQSYVPIREYEYVYWGQGTQVTVSRSGPPCPPCPAPEFLGGPSVFLFPPKPKDTLMISRTPEVTCVVVDVSQEDPEVQFNWYVDGVEVHNAKTKPREEQFNSTYRVVSVLTVLHQDWLNGKEYKCKVSNKGLPSSIEKTISKAKGQPREPQVYTLPPCQEEMTKNQVSLWCLVKGFYPSDIAVEWESNGQPENNYKTTPPVLDSDGSFFLYSRLTVDKSRWQEGNVFSCSVMHEALHNHYTQKSLSLSLGK
chain 2: EVQLLESGGGLVQPGGSLRLSCAASGFTFGNYDMAWVRQAPGKRPEWVSSIDTGGDITHYADSVKGRFTISRDNAKNTLYLQMNSLRPEDTAVYWCATDEEYALGPNEFDYYGQGTLVTVSSRSGPPCPPCPAPEFLGGPSVFLFPPKPKDTLMISRTPEVTCVVVDVSQEDPEVQFNWYVDGVEVHNAKTKPREEQFNSTYRVVSVLTVLHQDWLNGKEYKCKVSNKGLPSSIEKTISKAKGQPREPQVCTLPPSQEEMTKNQVSLSCAVKGFYPSDIAVEWESNGQPENNYKTTPPVLDSDGSFFLVSRLTVDKSRWQEGNVFSCSVMHEALHNHYTQKSLSLSLGK
B6: CIgG4E1A1(RS) (Fc fusion)
chain 1: GPPCPPCPAPEFLGGPSVFLFPPKPKDTLMISRTPEVTCVVVDVSQEDPEVQFNWYVDGVEVHNAKTKPREEQFNSTYRVVSVLTVLHQDWLNGKEYKCKVSNKGLPSSIEKTISKAKGQPREPQVYTLPPCQEEMTKNQVSLWCLVKGFYPSDIAVEWESNGQPENNYKTTPPVLDSDGSFFLYSRLTVDKSRWQEGNVFSCSVMHEALHNHYTQKSLSLSLGKRSDVQLQESGGGLVQAGGSLRLSCLASGRTFTTTSGYNMGWFRQAPGKEREFVAGIKWVSGSNRAYAESVKGRFTISRDNAKNTVYLQMNSLKPEDTAVYYCAAATGQSYVPIREYEYVYWGQGTQVTVS
chain 2: GPPCPPCPAPEFLGGPSVFLFPPKPKDTLMISRTPEVTCVVVDVSQEDPEVQFNWYVDGVEVHNAKTKPREEQFNSTYRVVSVLTVLHQDWLNGKEYKCKVSNKGLPSSIEKTISKAKGQPREPQVCTLPPSQEEMTKNQVSLSCAVKGFYPSDIAVEWESNGQPENNYKTTPPVLDSDGSFFLVSRLTVDKSRWQEGNVFSCSVMHEALHNHYTQKSLSLSLGKRSEVQLLESGGGLVQPGGSLRLSCAASGFTFGNYDMAWVRQAPGKRPEWVSSIDTGGDITHYADSVKGRFTISRDNAKNTLYLQMNSLRPEDTAVYWCATDEEYALGPNEFDYYGQGTLVTVSS
B7: NIgG4E1A1(G4S)3 (Fc fusion)
chain 1: DVQLQESGGGLVQAGGSLRLSCLASGRTFTTTSGYNMGWFRQAPGKEREFVAGIKWVSGSNRAYAESVKGRFTISRDNAKNTVYLQMNSLKPEDTAVYYCAAATGQSYVPIREYEYVYWGQGTQVTVSGGGGSGGGGSGGGGSGPPCPPCPAPEFLGGPSVFLFPPKPKDTLMISRTPEVTCVVVDVSQEDPEVQFNWYVDGVEVHNAKTKPREEQFNSTYRVVSVLTVLHQDWLNGKEYKCKVSNKGLPSSIEKTISKAKGQPREPQVYTLPPCQEEMTKNQVSLWCLVKGFYPSDIAVEWESNGQPENNYKTTPPVLDSDGSFFLYSRLTVDKSRWQEGNVFSCSVMHEALHNHYTQKSLSLSLGK
chain 2: EVQLLESGGGLVQPGGSLRLSCAASGFTFGNYDMAWVRQAPGKRPEWVSSIDTGGDITHYADSVKGRFTISRDNAKNTLYLQMNSLRPEDTAVYWCATDEEYALGPNEFDYYGQGTLVTVSSGGGGSGGGGSGGGGSGPPCPPCPAPEFLGGPSVFLFPPKPKDTLMISRTPEVTCVVVDVSQEDPEVQFNWYVDGVEVHNAKTKPREEQFNSTYRVVSVLTVLHQDWLNGKEYKCKVSNKGLPSSIEKTISKAKGQPREPQVCTLPPSQEEMTKNQVSLSCAVKGFYPSDIAVEWESNGQPENNYKTTPPVLDSDGSFFLVSRLTVDKSRWQEGNVFSCSVMHEALHNHYTQKSLSLSLGK
B8: CIgG4E1A1(G4S)1 (Fc fusion)
chain 1: GPPCPPCPAPEFLGGPSVFLFPPKPKDTLMISRTPEVTCVVVDVSQEDPEVQFNWYVDGVEVHNAKTKPREEQFNSTYRVVSVLTVLHQDWLNGKEYKCKVSNKGLPSSIEKTISKAKGQPREPQVYTLPPCQEEMTKNQVSLWCLVKGFYPSDIAVEWESNGQPENNYKTTPPVLDSDGSFFLYSRLTVDKSRWQEGNVFSCSVMHEALHNHYTQKSLSLSLGKGGGGSDVQLQESGGGLVQAGGSLRLSCLASGRTFTTTSGYNMGWFRQAPGKEREFVAGIKWVSGSNRAYAESVKGRFTISRDNAKNTVYLQMNSLKPEDTAVYYCAAATGQSYVPIREYEYVYWGQGTQVTVS
chain 2: GPPCPPCPAPEFLGGPSVFLFPPKPKDTLMISRTPEVTCVVVDVSQEDPEVQFNWYVDGVEVHNAKTKPREEQFNSTYRVVSVLTVLHQDWLNGKEYKCKVSNKGLPSSIEKTISKAKGQPREPQVCTLPPSQEEMTKNQVSLSCAVKGFYPSDIAVEWESNGQPENNYKTTPPVLDSDGSFFLVSRLTVDKSRWQEGNVFSCSVMHEALHNHYTQKSLSLSLGKGGGGSEVQLLESGGGLVQPGGSLRLSCAASGFTFGNYDMAWVRQAPGKRPEWVSSIDTGGDITHYADSVKGRFTISRDNAKNTLYLQMNSLRPEDTAVYWCATDEEYALGPNEFDYYGQGTLVTVSS

T1 sequence (P01854 other isoform, or with tags, fused parts or gaps): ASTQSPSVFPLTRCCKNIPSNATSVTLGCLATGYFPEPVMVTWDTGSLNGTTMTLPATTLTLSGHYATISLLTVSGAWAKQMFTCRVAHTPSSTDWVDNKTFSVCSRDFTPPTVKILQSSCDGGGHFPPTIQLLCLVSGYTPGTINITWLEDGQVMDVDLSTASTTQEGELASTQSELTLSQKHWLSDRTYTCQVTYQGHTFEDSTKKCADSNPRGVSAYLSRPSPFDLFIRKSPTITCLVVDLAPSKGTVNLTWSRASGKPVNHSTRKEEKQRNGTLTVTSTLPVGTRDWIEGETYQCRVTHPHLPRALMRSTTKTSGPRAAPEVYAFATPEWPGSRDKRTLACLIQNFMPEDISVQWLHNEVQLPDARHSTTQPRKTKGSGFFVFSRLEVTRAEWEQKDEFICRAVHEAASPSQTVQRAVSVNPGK

The experiment concerns the target T1, recombinant human IgE (human, UniProt P01854-1 1-428).
T1 construct: made in-house (ALK); preloaded on immobilised FcεRIα in the displacement ELISA
Put plainly: IgE-FcεRIα displacement ELISA. The method, boiled down:
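Streptavidin-coated plates carried site-specifically biotinylated recombinant human FcεRIα, loaded with recombinant human IgE at 13 ng/ml. sdAbs in a pM–μM series were added for 1 h, and displaced IgE was washed off. Percent displacement was the signal reduction versus the no-sdAb control, giving EC50 and maximal effect.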
On to B1, for which the Max effect is over 95%. Consider B2, for which the EC50 was 4.8 nM and the Max effect is over 95%. In the same order, the values of B3 are 10 nM and over 95%. As for B4, the Max effect is over 95%.

For the molecule B5, the Max effect was over 95%. Regarding B6, the EC50 was found to be 480 nM and the Max effect is 65%.

With B7, the Max effect is over 95%. Consider B8, for which the EC50 came out at 30 nM and the Max effect was over 95%.
